The numbers were not newly measured in PMC8469970, which cites them from elsewhere.

In general, Kd refers to the equilibrium constant for the complex coming apart.

The target of this series is Galectin-1 (Homo sapiens) (UniProt P09382).

Regarding Galectin-1 (from UniProt P09382), the dissociation constant Kd is 7 µM.
